Experimental data from paper PMC8551123, “Pentose degradation in archaea: Halorhabdus species degrade D-xylose, L-arabinose and D-ribose via bacterial-type pathways” (Extremophiles, 2020).

Key:
[1] = target: Ribokinase of Halorhabdus tiamatea (HTIA_0439) (Halorhabdus tiamatea); test: SEC; Superdex 200 HiLoad column (1.6 by 60 cm), flow rate 1 ml/min, calibrated with the HMW and LMW kits; oligomeric state from the native mass and the calculated subunit mass
[2] = target: Ribose-5-phosphate isomerase of Halorhabdus utahensis (Huta_0832) (Halorhabdus utahensis); test: as above
[3] = target: the molecule itself; test: as above
[4] = substrate: Nc1ncnc2c1ncn2[C@@H]1O[C@H](COP(=O)(O)OP(=O)(O)OP(=O)(O)O)[C@@H](O)[C@H]1O; test: coupled pyruvate kinase/lactate dehydrogenase assay (NADH); format: biochemical, Halorhabdus tiamatea; details: D-ribose co-substrate (5 mM standard), 42 °C, pH 7.5 bis-tris, 1.5 M KCl, 10 mM MgCl2
[5] = substrate: O=C(CO)[C@@H](O)[C@@H](O)CO; test: as above; format: biochemical, Halorhabdus utahensis; details: ATP co-substrate (10 mM standard), 37 °C, pH 8.0, 1.5 M KCl, 50 mM MgCl2
[6] = substrate: Nc1ncnc2c1ncn2[C@@H]1O[C@H](COP(=O)(O)OP(=O)(O)OP(=O)(O)O)[C@@H](O)[C@H]1O; test: as above; format: biochemical, Halorhabdus utahensis; details: 37 °C
[7] = substrate: O=C(CO)[C@@H](O)[C@H](O)CO; test: as above; format: biochemical, Halorhabdus utahensis; details: ATP co-substrate (12.5 mM standard), 37 °C, pH 8.0, 2 M KCl, 10 mM MgCl2

## Ribokinase of Halorhabdus tiamatea (HTIA_0439) (enzyme)
[1]
  stoichiometry N: 2

## Ribose-5-phosphate isomerase of Halorhabdus utahensis (Huta_0832) (enzyme)
[2]
  stoichiometry N: 4

B1: Arabinose isomerase of Halorhabdus utahensis (Huta_1154) (enzyme, UniProt C7NML7 1-495, looked up)
chain: MSPIPHGTDFDDLEVWFLTGSQHLYGEETLDLVAEDAREVAAGLDDDDRIPVSVEFKSVLTTADAIESVVREANASEDCIGLITWMHTFSPAKMWIRGLQALDVPFVHLHTQFNRELPYDEIDMDFMNANQSAHGGREFGHIVSRLDIDRKVVVGHWEDDDVREQLDTWARAAAARHELRGAKIARFGDNMRDVAVTEGDKVSAQMAFGASVDGYGLGDLVEFVEDVTESEIDDLLEEYDQQYELAAELQADGDRRDSLREAARIELGIRAFLEDGEFVGFTTTFENLTGLSQLPGLAVQRLMADGYGFGPEGDWKSALLTRAMKVMGQGLNGGTSLMEHYTYDLTEGDEKVLGAHMLEICESIAGEQPRLEIHPLDIGGKADPVRAVFDADTGPAINASLVDMGDRFRLITNDVESVGPDEPLPELPVARAVWKPEPDFETAIEAWIKAGGAHHTGYSQAVTNEHLEDFASMTGIEHLHVGADTDIADVERKLS
notes: arabinose isomerase, Halorhabdus utahensis, gene Huta_1154 (1488 nucleotides); calculated subunit mass 55.4 kDa; Gene amplified from genomic DNA and cloned into pTA963; source: Haloferax volcanii H1209, purified (Ni-NTA, size-exclusion chromatography)
[3]
  stoichiometry N: 6

B2: ribokinase (HTIA_0439) (Halorhabdus tiamatea SARL4B) (protein)
chain: MGNVYVAGSINQDIAVRLERRPQPGETVPGESASFGLGGKGANQAIAAARSGAAVELIGAVGDDRFGEELLADLDTEDGLSTAGVHRASNTSTGVALITVDADSENAIVAVPGANAALAPADVGDVGMEDDAVVLSQFEIPQPTIRTFFEQAHAQGARTVLNPAPAETVREDLLERVDFLVVNETEALFYADGDSKGQLSQDELVETAAALRTHDEQVVVVTLGEAGVFASTPSETIELDAYAVDPVDTTGAGDAFVGAFATALGDGLRLRDALDVGAAAGALATTQTGAAPSLPTRAAIEDLRADE
notes: full length, overexpressed, recombinant (Haloferax volcanii H1209, pTA963, His tag by general methods)
[4]
  Km: 100 µM

B3: Ribulokinase of Halorhabdus utahensis (Huta_1150) (enzyme, UniProt C7NMB8 1-512, looked up)
chain: MDGQYLVGTDIGTNSTKTILVSPEGEVLGTGNAGYEVEQPEPSWAQQWPDVWVEATYDSIQQAIDEAEVDPSEIRGISISSLYGGAGVPLDSEGEPVYPCLIWMDRRATDQVEWVKENVDLDRLFEITGNYVDSYYGYTKIRWIKEHEPEVWDDIENFVPPNNYVEYVMTDELAVDYSSAGNVGGVFDIHDLAWSEEACEMLEIPIEKFPERLVPTEEIVGEVTADAAEASGLPEGTPVLAGGVDAPMATLAAGAFEEGDNVSMMGTSTCWGTIHEGAGLDQQLVSMPHVAEGEEKIYTWGGSATTGGLIEWFKDEFGGPEEQAGELVDVDPFELLNMKAEEIPAGSEGLVALPYFKGERSPIWDPDARGMFTGLSLYHGKSHMYRALMEAGGYSLRHNVEVAEEIGIPLNDETSVVGGVSNSELWMQILADVTGRRMEVPAGGVGAPLGDALVVGVGTGLFEDYDVATEWTETGEVYTPEPENVDTYDEYYDIYKRLYQNTKDEMHDLAQL
notes: ribulokinase, Halorhabdus utahensis, gene Huta_1150 (1539 nucleotides); calculated subunit mass 56.1 kDa; Gene amplified from genomic DNA and cloned into pTA963; also called L-ribulokinase; source: Haloferax volcanii H1209, purified (Ni-NTA, size-exclusion chromatography)
[5]
  Km: 550 µM
[6]; L-ribulose co-substrate (1 mM standard), pH 8.0, 1.5 M KCl, 50 mM MgCl2
  Km: 4200 µM
[3]
  stoichiometry N: 6

B4: Xylulokinase of Halorhabdus utahensis (Huta_2446) (enzyme, UniProt C7NMH3 1-515, looked up)
chain: MGLDLGTSGVKTLVADADGEVLATNTEEYPLYQPEVGWSEQDPADWWAATLDGIEAVLEDPAVDPEDVEALGLTGQMHGSVFLDGEGEVLRPAILWNDTRTSAQCDEIEERVGEDRIIELASNPPFEGFTAPKILWVQEHEPEVYDQTESILLPKDFIRYKLTEAFATDVSDASGTLLLDVGERDWSPEILDELDISRDLLPEVYESPEVTGAVTDAVAERTGLPAGTPVVAGAGDNAAGAVGSGVVGDGDVWGSIGTSGVIFVATDDERTDPEGRVHTFCHAVPDTWHVMGVMLSAGGAFSWFSETLGGPEEVVADQLGKDAFEVLTDEAATVDPGSEGLIFLPYLNGERTPHRDADARGAFFGLSTRHDKSHVVRSVLEGVTYGLRDSFRIVRDDLGVDTGQLKAAGGGAKSPLWKQIQADIFDAEILTPNVDEGPAYGSALLAGVGADVYDNVADATEQAVDIVDSVEPIDQHTRVYDEYYEIYESLYPALEDSFAANSAAIESAQDILDEA
notes: xylulokinase, Halorhabdus utahensis, gene Huta_2446 (1548 nucleotides); calculated subunit mass 55.1 kDa; Gene amplified from genomic DNA and cloned into pTA963; source: Haloferax volcanii H1209, purified (Ni-NTA, size-exclusion chromatography, Phenyl-Sepharose)
[7]
  Km: 310 µM
[6]; D-xylulose co-substrate (10 mM standard), pH 8.0, 2 M KCl, 10 mM MgCl2
  Km: 5680 µM
[3]
  stoichiometry N: 2

B5: Xylose isomerase of Halorhabdus utahensis (Huta_2443) (enzyme, UniProt C7NMH0 1-438, looked up)
chain: MSEYFPEIDEITYEGPDSQDPLSFSYYDPEKQVGEKTMAEHLRFSVAYWHTLREDGSDPFGAGTMQRPWDDIDDPMEKAHARVDAAFEFFEKLGVPYFCFHDRDIAPKGEDLAESNENLDEIVDHVEEKIDETGVELLWGTAQLFMEPKFAHGAATSPNPDVFAHAAGQVKKAMEVTERLGGENFVFWGGREGYKTLLNSDMGRELDNMGRFFRMAADYADDIGFDGQLLIEPKPKEPTKHQYDFDAANVMAFLREYGLEDRFNLNLEANHATLAGHTFRHELQYARVNDALGSVDANQGDKLIGWDTDEFPTDVYMTTLAMYEVLENDGIAPGGLNFDAKVRRESFEPVDLFYGHVVGMDTFARGLEVAHELREDGVFADVIDDRYGYDAGIGAEIAAESTDFEALAEYALENDGIELESGRQEKLKAVLNSYILES
notes: xylose isomerase, Halorhabdus utahensis, gene Huta_2443 (1317 nucleotides); calculated subunit mass 49.3 kDa; Gene amplified from genomic DNA and cloned into pTA963; Elution from Ni-NTA implies a His tag; also called class II xylose isomerase; source: Haloferax volcanii H1209, purified (Ni-NTA, size-exclusion chromatography)
[3]
  stoichiometry N: 4
